Laboratory results: patent US20240228596A1 (VIB VZW, published 2024)

Target: SARS-COV-1 spike protein on VSV-delG pseudotyped particles (SARS-COV-1, UniProt P59594 14-1255)
Assay: cell-based or functional assay

B1: VHH72_h1_S56A (VHH)
VHH: EVQLVESGGGLVQPGGSLRLSCAASGRTFSEYAMGWFRQAPGKEREFVATISWSGGATYYTDSVKGRFTISRDNAKNTVYLQMNSLRPEDTAVYYCAAAGLGTVVSEWDYDYDYWGQGTLVTVSS
B1 was tested, and the “IC50 Mean VSV-dG-spike SARS-COV-1” value was 0.013 mg/L.
